Assay [1] addresses T1, human c-Met/Fc fusion protein (R&D Systems) (human, UniProt P08581 25-932).
T1 construct: Bought protein; also called c-Met-Fc (#358-MT/CF, R&D Systems); human c-Met/Fc protein; not shown: Fc part of the bought fusion protein
Kind of assay: SPR, Biacore T100; antibody captured by human Fab capture on CM5 chip, c-Met-Fc as analyte. Here is the method: (§1) An examination was made to see whether the antibody-drug conjugates maintain affinity for the antigen.
(§2) Briefly, a human Fab capture (GE Healthcare) was immobilized on CM5 chip (#BR-1005-30, GE) according to the manufacturer's instruction. […] The chip was regenerated with 10 mM Glycine-HCl (pH 1.5). To quantify the affinity, the data obtained above was fitted using BIAevaluation software (GE Healthcare, Biacore T100 evaluation software).

Assay [2] concerns the target T1, human c-Met/Fc fusion protein (R&D …). Kind of assay: SPR, Biacore T100; ADC captured by human Fab capture on CM5 chip, c-Met-Fc as analyte. Here is the method:
as §1, §2
A general note: In SPR one partner is held on a chip, and binding of the other changes the refractive index at the surface.

For assay [3] the target is unchanged. Put plainly: ELISA, hybridoma culture on plate-coated human c-Met/Fc fusion protein. Here is the method: The hybridoma cell culture obtained in Reference Example 1.1.2 was added in an amount of 50 μL to each well of the plates and incubated for 1 hour. The cells remaining unreacted were washed out with a sufficient amount of Tris-buffered saline and Tween 20 (TBST). Goat anti-mouse IgG-horseradish peroxidase (HRP) was added to the plates and incubated for 1 hour at room temperature. The plates were washed with a sufficient amount of TBST, followed by reacting the peroxidase with a substrate (OPD). Absorbance at 450 nm was measured on an ELISA reader.
Background: In an ELISA, binding on a coated surface is turned into a signal by an enzyme label.

In general, Kd refers to the free concentration of one partner at which half of the binding sites on the other are occupied at equilibrium, for simple one-to-one binding. Low readings indicate higher affinity, high ones lower affinity. For orientation: koff means the rate constant with which the complex falls apart. Higher therefore signals fast dissociation. As a reminder, the kon is the second-order rate constant of association. A low value points to slower complex formation.

T1 sequence (P08581 25-932 limits assumed): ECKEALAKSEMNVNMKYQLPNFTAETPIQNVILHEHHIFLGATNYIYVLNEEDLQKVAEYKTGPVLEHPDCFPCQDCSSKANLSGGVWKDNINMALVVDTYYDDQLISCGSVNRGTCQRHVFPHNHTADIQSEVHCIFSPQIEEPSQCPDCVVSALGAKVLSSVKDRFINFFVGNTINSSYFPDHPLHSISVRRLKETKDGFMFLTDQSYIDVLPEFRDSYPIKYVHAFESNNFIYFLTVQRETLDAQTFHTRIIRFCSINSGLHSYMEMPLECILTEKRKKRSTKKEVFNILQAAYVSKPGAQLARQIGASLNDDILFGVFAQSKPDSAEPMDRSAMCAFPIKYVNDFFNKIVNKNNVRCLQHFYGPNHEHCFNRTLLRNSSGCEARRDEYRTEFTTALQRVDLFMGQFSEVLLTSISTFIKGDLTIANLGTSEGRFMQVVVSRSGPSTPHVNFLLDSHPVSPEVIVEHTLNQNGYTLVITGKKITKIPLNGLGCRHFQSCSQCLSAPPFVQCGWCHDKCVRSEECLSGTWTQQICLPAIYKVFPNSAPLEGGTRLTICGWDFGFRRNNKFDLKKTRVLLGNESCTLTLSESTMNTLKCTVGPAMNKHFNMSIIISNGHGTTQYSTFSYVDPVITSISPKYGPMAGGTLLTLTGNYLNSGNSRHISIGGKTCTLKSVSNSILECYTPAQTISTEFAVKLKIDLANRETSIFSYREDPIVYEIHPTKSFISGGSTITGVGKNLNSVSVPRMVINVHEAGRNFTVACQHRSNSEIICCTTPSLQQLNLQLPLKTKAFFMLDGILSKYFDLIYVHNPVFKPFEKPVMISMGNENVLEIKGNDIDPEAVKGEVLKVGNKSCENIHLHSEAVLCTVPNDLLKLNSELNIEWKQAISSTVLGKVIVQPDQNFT

B1: anti-c-Met antibody L3-1Y/IgG2 (antibody, V domains shown)
VH: EVQLVESGGGLVQPGGSLRLSCAASGFTFTDYYMSWVRQAPGKGLEWLGFIRNKANGYTTEYSASVKGRFTISRDNSKNTLYLQMNSLRAEDTAVYYCARDNWFAYWGQGTLVTVSS
VL: DIQMTQSPSSLSASVGDRVTITCKSSQSLLASGNQNNYLAWYQQKPGKAPKMLIIWASTRVSGVPSRFSGSGSGTDFTLTISSLQPEDFATYYCQQSYSRPYTFGQGTKVEIKR
notes: also called huAbF46-H4-A1 (IgG2 Fc)
Take B1: in assay [1], the Kd was 58 pM, the dissociation rate constant (koff) amounted to 3.42e-05 s⁻¹ and the kon came to 589000 M⁻¹ s⁻¹.

B2: antibody-drug conjugate ADC1 (L3-1Y/IgG2 conjugated with docetaxel by amine coupling, feed molar ratio 5; DAR 3.7) (antibody, V domains shown)
VH: EVQLVESGGGLVQPGGSLRLSCAASGFTFTDYYMSWVRQAPGKGLEWLGFIRNKANGYTTEYSASVKGRFTISRDNSKNTLYLQMNSLRAEDTAVYYCARDNWFAYWGQGTLVTVSS
VL: DIQMTQSPSSLSASVGDRVTITCKSSQSLLASGNQNNYLAWYQQKPGKAPKMLIIWASTRVSGVPSRFSGSGSGTDFTLTISSLQPEDFATYYCQQSYSRPYTFGQGTKVEIKR
modifications: docetaxel-succinate (NHS-DTX) coupled to primary amines of lysine residues; sites not stated; DAR 3.7 for the whole antibody
notes: also called ADC (DAR 3.7)
For B2, in assay [2], the Kd turned out to be 99.8 pM, the koff is 3.63e-05 s⁻¹ and the on-rate (kon) came to 364000 M⁻¹ s⁻¹.

B3: AbF46, mouse monoclonal antibody to c-Met (hybridoma KCLRF-BP-00220) (antibody, V domains shown)
VH: EVKLVESGGGLVQPGGSLRLSCATSGFTFTDYYMSWVRQPPGKALEWLGFIRNKANGYTTEYSASVKGRFTISRDNSQSILYLQMDTLRAEDSATYYCARDNWFAYWGQGTLVTVSA
VL: DILMTQSPSSLTVSAGEKVTMSCKSSQSLLASGNQNNYLAWHQQKPGRSPKMLIIWASTRVSGVPDRFIGSGSGTDFTLTINSVQAEDLAVYYCQQSYSAPLTFGAGTKLELK
notes: Tested as hybridoma culture supernatant in the selection ELISA; also called mouse antibody AbF46
As for B3, in assay [3], the binding result is on record as “binds”.

These data come from US20150071950A1 (SAMSUNG ELECTRONICS, published 2015).
